Earlier results as cited in article PMC5150220.

Target: sigma32 peptide 132-144 (Escherichia coli) (UniProt P0AGB3)

DnaK, sequence (P0A6Y8 2-638): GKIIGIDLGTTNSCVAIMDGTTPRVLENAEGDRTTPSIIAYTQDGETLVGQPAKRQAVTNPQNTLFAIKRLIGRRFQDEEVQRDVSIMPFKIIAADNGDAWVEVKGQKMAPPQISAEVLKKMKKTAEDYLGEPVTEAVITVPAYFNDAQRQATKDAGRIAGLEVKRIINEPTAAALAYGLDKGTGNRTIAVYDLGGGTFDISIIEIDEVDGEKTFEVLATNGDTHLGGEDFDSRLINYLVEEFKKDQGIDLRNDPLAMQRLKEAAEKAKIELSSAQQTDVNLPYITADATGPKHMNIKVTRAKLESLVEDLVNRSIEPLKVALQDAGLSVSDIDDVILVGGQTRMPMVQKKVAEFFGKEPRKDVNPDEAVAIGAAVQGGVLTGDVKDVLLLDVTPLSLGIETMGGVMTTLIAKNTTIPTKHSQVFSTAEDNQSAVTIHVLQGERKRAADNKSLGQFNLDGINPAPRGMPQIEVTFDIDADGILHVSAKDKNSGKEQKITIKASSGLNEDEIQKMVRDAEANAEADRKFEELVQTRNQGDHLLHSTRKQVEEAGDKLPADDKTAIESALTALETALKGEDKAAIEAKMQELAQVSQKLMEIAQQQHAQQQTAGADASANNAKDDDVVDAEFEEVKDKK

Kd: 0.078 µM
Substance: DnaK (from UniProt P0A6Y8)
